Source: US20230203097A1
Where no end group is shown, it is not given here.

Experiments:
recombinant MAVS protein [1] = experiment: fluorescence-labeled peptide titrated on plate-coated recombinant MAVS (250 ng per well), fluorescence read-out
recombinant MAVS protein [2] = experiment: fluorescence-labeled peptide titrated on plate-coated recombinant MAVS; ratio of the Kd of MQP-37 to that of MQP-37A6

Chain of recombinant MAVS protein (Q7Z434 2-540): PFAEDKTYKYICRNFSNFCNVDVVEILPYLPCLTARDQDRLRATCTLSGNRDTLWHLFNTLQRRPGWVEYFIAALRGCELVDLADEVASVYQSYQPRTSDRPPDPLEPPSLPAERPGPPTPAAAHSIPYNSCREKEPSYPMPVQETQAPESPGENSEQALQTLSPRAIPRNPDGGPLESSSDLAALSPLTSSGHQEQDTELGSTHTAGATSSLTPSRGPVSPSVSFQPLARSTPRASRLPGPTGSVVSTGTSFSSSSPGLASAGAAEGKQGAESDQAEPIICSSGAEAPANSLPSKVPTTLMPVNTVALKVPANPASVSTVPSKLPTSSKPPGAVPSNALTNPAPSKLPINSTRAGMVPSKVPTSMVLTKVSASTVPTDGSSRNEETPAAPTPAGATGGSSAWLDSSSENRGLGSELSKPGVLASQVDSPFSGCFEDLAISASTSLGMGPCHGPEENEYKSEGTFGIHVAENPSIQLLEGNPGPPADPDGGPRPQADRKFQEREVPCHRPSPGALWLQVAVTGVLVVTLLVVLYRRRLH

Row | Binder | Kd (recombinant MAVS protein [1]) [mM] | fold binding affinity against MQP-37 (recombinant MAVS protein [2]) [times]
1 | SLVLADARW (also: fluorescence-labeled, label and position not given here) [fluorescence-labeled peptide MQP-37] | 16 | 
2 | SLVLAAARW (also: fluorescence-labeled, label and position not given here) [fluorescence-labeled novel alanine-substituted peptide MQP-37A6] | 0.75 | 20
